Results taken from patent EP1516629B1 (Genentech, Inc., dated 2013).

Assays:
[1] = target: T1, human CD11a (human, UniProt P20701 26-1170); assay: FACScan, Jurkat cells
T1 construct: whole, on cells; On cells it stands paired with CD18 as LFA-1; also called alpha subunit of LFA-1; LFA-1 (CD11a/CD18)
Target sequence in this assay (P20701 26-1170): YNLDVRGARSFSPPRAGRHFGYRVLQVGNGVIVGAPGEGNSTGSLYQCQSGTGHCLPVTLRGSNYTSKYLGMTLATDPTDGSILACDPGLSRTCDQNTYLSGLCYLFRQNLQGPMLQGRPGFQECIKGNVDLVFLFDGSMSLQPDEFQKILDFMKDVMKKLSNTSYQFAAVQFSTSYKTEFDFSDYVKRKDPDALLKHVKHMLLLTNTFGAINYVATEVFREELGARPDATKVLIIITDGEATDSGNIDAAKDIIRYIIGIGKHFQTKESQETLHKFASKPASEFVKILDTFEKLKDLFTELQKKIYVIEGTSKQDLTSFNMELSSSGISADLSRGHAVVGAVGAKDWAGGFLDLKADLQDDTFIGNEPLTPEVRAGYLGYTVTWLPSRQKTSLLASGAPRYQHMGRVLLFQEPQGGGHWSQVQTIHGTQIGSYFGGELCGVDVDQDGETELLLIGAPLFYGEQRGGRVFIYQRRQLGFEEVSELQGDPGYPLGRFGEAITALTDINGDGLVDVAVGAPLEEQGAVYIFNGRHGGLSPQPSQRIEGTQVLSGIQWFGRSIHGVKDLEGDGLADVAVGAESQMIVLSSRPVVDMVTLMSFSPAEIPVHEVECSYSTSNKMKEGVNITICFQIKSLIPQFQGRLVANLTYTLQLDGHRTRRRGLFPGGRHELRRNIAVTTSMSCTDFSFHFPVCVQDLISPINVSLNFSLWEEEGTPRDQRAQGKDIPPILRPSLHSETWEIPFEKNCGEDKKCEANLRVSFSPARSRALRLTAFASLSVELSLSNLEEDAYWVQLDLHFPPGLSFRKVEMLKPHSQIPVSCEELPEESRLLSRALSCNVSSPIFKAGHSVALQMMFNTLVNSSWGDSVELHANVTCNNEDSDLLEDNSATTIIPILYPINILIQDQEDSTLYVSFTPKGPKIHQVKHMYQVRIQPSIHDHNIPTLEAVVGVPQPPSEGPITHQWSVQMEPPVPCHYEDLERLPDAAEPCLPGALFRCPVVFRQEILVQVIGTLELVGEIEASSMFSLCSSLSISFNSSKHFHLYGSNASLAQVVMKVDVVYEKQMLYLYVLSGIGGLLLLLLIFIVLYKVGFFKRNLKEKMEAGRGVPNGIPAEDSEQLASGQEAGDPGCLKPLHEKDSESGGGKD

[2] = target: T1, human CD11a; assay: FACScan, Jurkat cells; remark: listed apart in the source
[3] = target: T1, human CD11a; assay: FACScan, Jurkat cells; remark: listed apart in the source
[4] = target: T1, human CD11a; assay: cell-based or functional assay
[5] = target: T1, human CD11a; assay: cell-based or functional assay; remark: listed apart in the source
[6] = target: T2, rhesus CD11a (rhesus, UniProt H9Z8N3 26-1169); assay: cell binding EC50, rhesus against human CD11a
T2 construct: whole, on cells; also called rhCD11a
T2 sequence: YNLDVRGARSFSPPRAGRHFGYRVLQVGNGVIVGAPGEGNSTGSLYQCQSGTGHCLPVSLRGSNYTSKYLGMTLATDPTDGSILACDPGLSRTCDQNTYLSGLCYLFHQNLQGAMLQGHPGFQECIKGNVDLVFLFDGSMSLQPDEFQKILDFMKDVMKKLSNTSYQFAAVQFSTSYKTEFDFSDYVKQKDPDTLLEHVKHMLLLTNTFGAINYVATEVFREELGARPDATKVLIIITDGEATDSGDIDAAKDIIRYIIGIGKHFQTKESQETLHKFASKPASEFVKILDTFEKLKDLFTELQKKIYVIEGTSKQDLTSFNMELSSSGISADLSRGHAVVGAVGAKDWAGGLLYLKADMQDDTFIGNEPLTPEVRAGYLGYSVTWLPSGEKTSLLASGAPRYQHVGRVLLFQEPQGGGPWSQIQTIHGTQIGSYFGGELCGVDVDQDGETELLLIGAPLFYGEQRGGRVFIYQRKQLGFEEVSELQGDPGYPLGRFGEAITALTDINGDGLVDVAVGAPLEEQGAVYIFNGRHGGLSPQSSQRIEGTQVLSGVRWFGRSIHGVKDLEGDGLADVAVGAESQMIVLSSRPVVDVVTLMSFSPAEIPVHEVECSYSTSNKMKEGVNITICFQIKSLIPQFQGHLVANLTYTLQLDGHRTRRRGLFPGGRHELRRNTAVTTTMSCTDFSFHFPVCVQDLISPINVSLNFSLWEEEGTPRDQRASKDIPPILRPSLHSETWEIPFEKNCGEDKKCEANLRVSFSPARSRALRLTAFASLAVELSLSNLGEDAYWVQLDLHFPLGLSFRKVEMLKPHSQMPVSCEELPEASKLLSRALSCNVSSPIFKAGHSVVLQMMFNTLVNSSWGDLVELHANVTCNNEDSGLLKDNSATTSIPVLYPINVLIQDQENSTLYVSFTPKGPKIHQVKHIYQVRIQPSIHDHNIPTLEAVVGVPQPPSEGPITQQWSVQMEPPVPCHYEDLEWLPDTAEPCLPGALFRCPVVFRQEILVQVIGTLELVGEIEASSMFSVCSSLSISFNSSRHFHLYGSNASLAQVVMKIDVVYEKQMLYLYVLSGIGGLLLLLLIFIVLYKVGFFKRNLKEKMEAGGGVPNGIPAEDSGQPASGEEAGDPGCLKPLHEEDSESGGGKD

[7] = target: T2, rhesus CD11a; assay: binding to rhesus peripheral blood lymphocytes
[8] = target: T2, rhesus CD11a; assay: binding to rhesus peripheral blood lymphocytes; remark: listed apart in the source
[9] = target: T1, human CD11a; assay: saturation binding, human lymphocytes, donor 1, Kd(app)
[10] = target: T1, human CD11a; assay: saturation binding, human lymphocytes, donor 2, Kd(app)
[11] = target: T1, human CD11a; assay: saturation binding of 125I-antibody to human mononuclear cells, Kd(app)

EC50 F(ab)/EC50 F(ab)-2 [1]: 0.004 ratio
EC50 [2]: 0.042 nM
Var.EC50/HuIgG1 EC50 [3]: 1 ratio
IC50, blocking of cell adhesion, Jurkat:HuK [4]: 0.13 nM
IC50, human mixed lymphocyte response assay [5]: 0.38 nM
fold reduction in binding against human CD11a [6]: ~1000 fold
EC50 [7]: 45.6 nM
Var.EC50/HuIgG1 EC50 [8]: 1 ratio
Kd [9]: 0.11 nM
Kd [10]: 0.18 nM
Kd [11]: 0.15 nM
B1: humanized MHM24 IgG1 (HuIgG1) (antibody, V domains shown)
VH: EVQLVESGGGLVQPGGSLRLSCAASGYSFTGHWMNWVRQAPGKGLEWVGMIHPSDSETRYNQKFKDRFTISVDKSKNTLYLQMNSLRAEDTAVYYCARGIYFYGTTYFDYWGQGTLVTVSS
VL: DIQMTQSPSSLSASVGDRVTITCRASKTISKYLAWYQQKPGKAPKLLIYSGSTLQSGVPSRFSGSGSGTDFTLTISSLQPEDFATYYCQQHNEYPLTFGQGTKVEIKR
notes: F(ab)-8 VL and VH fused to human constant light and IgG1 heavy chains; also called HulgG1; huMHM24
